Assay results from paper PMC8986097, “SUMO-mediated recruitment allows timely function of the Yen1 nuclease in mitotic cells” (PLoS Genetics, 2022).

B1: Yen1-1xHA, wild-type, purified [S. cerevisiae] / GST-Smt3 [S. cerevisiae] (parent complex)
chain 1: MGVSQIWEFLKPYLQDSRIPLRKFVIDFNKSQKRAPRIAIDAYGWLFECGFIQNIDISARSRSRSRSPTRSPRDSDIDSSQEYYGSRSYTTTGKAVINFISRLKELLSLNVEFLLVFDGVMKPSFKRKFNHEQNATTCDDEKEYYSSWEQHVKNHEVYGNCKGLLAPSDPEFISLVRKLLDLMNISYVIACGEGEAQCVWLQVSGAVDFILSNDSDTLVFGGEKILKNYSKFYDDFGPSSITSHSPSRHHDSKESFVTVIDLPKINKVAGKKFDRLSLLFFSVLLGADYNRGVKGLGKNKSLQLAQCEDPNFSMEFYDIFKDFNLEDLTSESLRKSRYRLFQKRLYLYCKDHSVELFGRNYPVLLNQGSFEGWPSTVAIMHYFHPIVQPYFDEEVLSDKYINMAGNGHYRNLNFNELKYFLQSLNLPQISSFDKWFHDSMHEMFLLREFLSIDESDNIGKGNMRITEEKIMNIDGGKFQIPCFKIRYTTFLPNIPISSQSPLKRSNSPSRSKSPTRRQMDIMEHPNSLWLPKYLIPQSHPLVIQYYETQQLIQKEKEKKGKKSNKSRLPQKNNLDEFLRKHTSPIKSIGKVGESRKEILEPVRKRLFVDTDEDTSLEEIPAPTRLTTVDEHSDNDDDSLIFVDEITNSQSVLDSSPGKRIRDLTQDEQVDVWKDVIEISPIKKSRTTNAEKNPPESGLKSRSSITINARLQGTKMLPPNLTAPRLEREHSSVLDQLVTDAQDTVDRFVACDSDSSSTIE
chain 2: MSDSEVNQEAKPEVKPEVKPETHINLKVSDGSSEIFFKIKKTTPLRRLMEAFAKRQGKEMDSLRFLYDGIRIQADQTPEDLDMEDNDIIEAHREQIGGATY

Variants of: B1
Experiment: pull-down (GST-Smt3 on Glutathione resin, immuno-blot anti-HA); 1/10 inputs, 1/4 elution; parent: 1

Variant | ratio to parent
chain 1 D635A, chain 1 D636A, chain 1 D637A | 0.9
chain 1 V675A, chain 1 E677A | 0.9
